Assay results from patent US20110229472A1 (Amgen, published 2011).
Values belong to the binder of their own block, whether it stands above or below them. Ends that are not written are not given here.

Biological target: T1, Recombinant human MPL (human, UniProt P40238 26-491, limits assumed)
T1 construct: also called hu-mpl; hu-MPL
T1 sequence (looked up): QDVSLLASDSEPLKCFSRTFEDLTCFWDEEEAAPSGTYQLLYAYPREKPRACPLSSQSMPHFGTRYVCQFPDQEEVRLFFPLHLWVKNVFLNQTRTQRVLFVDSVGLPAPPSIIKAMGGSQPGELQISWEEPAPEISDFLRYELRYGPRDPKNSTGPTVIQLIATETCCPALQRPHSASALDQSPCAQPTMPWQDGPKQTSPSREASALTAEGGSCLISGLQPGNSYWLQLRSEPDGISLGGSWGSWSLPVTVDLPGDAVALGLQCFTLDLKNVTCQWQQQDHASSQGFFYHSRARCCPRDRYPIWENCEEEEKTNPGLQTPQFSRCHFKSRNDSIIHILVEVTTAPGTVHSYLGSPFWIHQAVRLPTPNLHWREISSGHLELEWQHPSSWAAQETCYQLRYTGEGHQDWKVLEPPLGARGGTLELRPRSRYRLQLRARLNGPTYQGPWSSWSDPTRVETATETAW
Experiment: phage ELISA titration: phagemid particles displaying the peptide, 5-fold dilution series (cfu/ul), on plate-coated recombinant human MPL, HRP-anti-M13 detection, chemiluminescent readout (Example 1, sections 4B and 5)

EC50 (read off the curve): ~400000 cfu/ul
B1: TMP2 (22-residue capped peptide) (peptide)
peptide: QGGAREGPTLRQWLEWVRVGHS
notes: two-residue caps at each end; also called TMP02

EC50 (read off the curve): ~100000 cfu/ul
B2: TMP4 (22-residue capped peptide) (peptide)
peptide: QGALRDGPTLKQWLEYRRQAHS
notes: two-residue caps at each end; also called TMP04

EC50 (read off the curve): ~100000 cfu/ul
Binder: QGCSWGGPTLKQWLQCVRAKHS (not fully specified; cysteine pairing not given here, two-residue caps at each end; Two Cys) [TMP23 (22-residue capped peptide)]

EC50 (read off the curve): ~800000 cfu/ul
Binder: QGWCKEGPTLREWLRWGFLCHS (not fully specified; cysteine pairing not given here, two-residue caps at each end; Two Cys) [TMP21 (22-residue capped peptide)]

EC50 (read off the curve): ~200000 cfu/ul
Binder: QGCSSGGPTLREWLQCRRMQHS (not fully specified; cysteine pairing not given here, two-residue caps at each end; Two Cys) [TMP22 (22-residue capped peptide)]

EC50 (read off the curve): ~200000 cfu/ul
B3: TMP3 (22-residue capped peptide) (peptide)
peptide: QGRDLDGPTLRQWLPLPSVQHS
notes: two-residue caps at each end; also called TMP03
